± gives the standard deviation of the averaged measurements.
B1: library; a variant is named by its letters at N, in order (parent)
chain: GAGACCGCAACTGAAAAGTTGTGGNNNNNATAGTGAGTCGCTGCCTGCAAAGACACAACT

Variants of: B1
Assay: ligation selection enrichment (abundance after / before one-round selection) (fold); higher = more template-directed ligation activity
Conditions: with T7Psub CACGGAUGCUAAUACGACUCACUAUA; MgCl2 25 mM; 42 °C; 4 h; pH 8.5
Protocol: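 Lib-N5 ligase ribozyme library: five randomized core nucleotides (including the GGA motif of N8-1) within the fixed N8-1 ribozyme flanks, transcribed by T7 RNA polymerase with a 5'-triphosphate. The library (0.75 uM) was reacted with substrate T7Psub (6 uM) in 50 mM EPPS pH 8.5 with 25 mM MgCl2 at 42 C for 4 h. Ligated products were PAGE-purified, reverse transcribed and MiSeq sequenced; enrichment = abundance after selection / abundance before selection, with two independent replicates. The full transcript is built from the printed template flanks.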

Variant	ligation selection enrichment
GAGAT	11.7 ± 2.6
CACCT	0.334 ± 0.14
ACATC	0.138 ± 0.056
ATCTC	0.078 ± 0.025
ATAAT	2.48 ± 0.27
GCGTG	0.272 ± 0.018
TCGAG	0.7035 ± 0.0067
TAGTA	0.19 ± 0.055
GACTA	0.161 ± 0.026
GACTT	0.157 ± 0.075
TTCTC	0.0957 ± 0.032
TTCTT	0.119 ± 0.006
TCAAG	0.718 ± 0.12
GTGAG	1.24 ± 0.03
CCAAC	0.217 ± 0.026
CGCAG	0.2266 ± 0.0013
CGCAT	3.7 ± 0.39
TGGGG	0.228 ± 0.049
GTGTC	0.144 ± 0.015
AAGAG	0.632 ± 0.085
AGGTC	0.196 ± 0.011
TTGAC	3.32 ± 0.24
ATGTA	0.206 ± 0.024
GTTGG	0.739 ± 0.059

Variant	ligation selection enrichment
TAAAT	0.784 ± 0.063
TAAAC	0.176 ± 0.054
GGAAG	0.341 ± 0.011
CCGAC	1.37 ± 0.061
TAACT	0.925 ± 0.31
GAAGC	0.167 ± 0.033
AAATC	0.171 ± 0.01
ACTTC	0.192 ± 0.049
CGTGC	0.196 ± 0.039
CGTCC	0.192 ± 0.059
TAGGT	0.115 ± 0.046
TAGGA	0.998 ± 0.19
CAGCG	0.535 ± 0.21
AGATG	0.602 ± 0.065
CATCT	0.541 ± 0.19
CATCG	1.33 ± 0.14
CATCA	0.288 ± 0.025
AGCGT	0.191 ± 0.054
CGCGG	0.533 ± 0.12
ACGGA	0.204 ± 0.033
GTCGC	0.371 ± 0.033
CCGGA	0.278 ± 0.019
GTACT	0.785 ± 0.17
TTCAC	0.38 ± 0.036

Variant	ligation selection enrichment
TTCAA	0.427 ± 0.13
CTAAG	0.314 ± 0.043
CTACG	0.429 ± 0.14
ACCCC	0.194 ± 0.0053
GTTAT	1.54 ± 0.28
GGATT	1.31 ± 0.31
CGACT	1.09 ± 0.25
TACCA	0.184 ± 0.011
TACCT	0.599 ± 0.22
GTGCA	0.307 ± 0.043
TGGCT	0.75 ± 0.2
TGGCG	0.345 ± 0.019
TGGTG	0.288 ± 0.042
TGGTT	0.438 ± 0.044
GAACC	0.225 ± 0.032
TTCGC	0.331 ± 0.0077
TATGA	2.32 ± 0.16
TGCTT	0.0805 ± 0.021
TTGTG	0.223 ± 0.015
GCCGT	0.214 ± 0.082
GCCGA	1.35 ± 0.035
GGGTA	0.445 ± 0.024
GGGTC	0.201 ± 0.006
CTGAC	1.07 ± 0.085

Variant	ligation selection enrichment
CTGAG	0.724 ± 0.054
GGCGC	0.2927 ± 0.0028
AGCAG	0.325 ± 0.015
AGCAA	0.342 ± 0.056
TGCGA	2.41 ± 0.15
GTAAT	4.35 ± 0.56
ATTTA	0.445 ± 0.1
ATTTC	0.201 ± 0.0059
CGGGT	0.147 ± 0.034
CGGGA	0.229 ± 0.025
TTTTC	0.167 ± 0.027
CAACT	0.615 ± 0.11
ATGGG	0.265 ± 0.05
TAGAG	0.755 ± 0.058
TAGAC	1.03 ± 0.29
CCATC	0.121 ± 0.0018
CCATA	0.14 ± 0.025
GAGGT	0.143 ± 0.025
TTATG	0.377 ± 0.02
TTATT	0.206 ± 0.071
TTATC	0.152 ± 0.02
GGTTA	0.477 ± 0.095
GGTTG	3.91 ± 0.67
AGGCG	0.527 ± 0.12

Variant	ligation selection enrichment
AATTG	1.46 ± 0.055
AATTA	0.421 ± 0.03
TGAGC	0.156 ± 0.035
GTCCA	0.148 ± 0.0086
TGACT	0.683 ± 0.3
TGACC	0.183 ± 0.0057
AGTGC	0.186 ± 0.0091
GTCAA	0.766 ± 0.16
CCGCG	0.499 ± 0.059
GCTCC	0.301 ± 0.0054
GCAAT	4.77 ± 1.7
CCCGT	0.207 ± 0.059
GGAGC	0.135 ± 0.022
GGAGG	0.371 ± 0.084
TCACA	0.115 ± 0.057
TATTA	0.197 ± 0.042
TCGCT	0.299 ± 0.075
TCGCA	0.269 ± 0.054
ACGAA	0.734 ± 0.16
GCGCC	0.191 ± 0.017
GCGCT	0.519 ± 0.19
ACGCT	0.449 ± 0.15
GATTA	0.278 ± 0.094
CACAC	0.168 ± 0.031

Variant	ligation selection enrichment
CACAT	1.16 ± 0.21
AGAAA	0.306 ± 0.043
ATTAT	1.85 ± 0.22
TTGCA	0.683 ± 0.015
CAGTT	0.238 ± 0.0081
CTTTC	0.2049 ± 0.00081
GTATA	0.2557 ± 0.00086
CTTCA	0.45 ± 0.093
CTGCA	0.147 ± 0.0049
GCTTA	0.21 ± 0.0056
ATACT	0.541 ± 0.11
CCTGC	0.128 ± 0.01
CCTGA	0.26 ± 0.038
TAGCA	0.21 ± 0.016
TAGCT	0.547 ± 0.17
CCTAG	0.356 ± 0.004
CGAGC	0.246 ± 0.036
CGAGG	0.422 ± 0.029
GGGGT	0.345 ± 0.11
GCTAA	0.176 ± 0.0063
AATCA	0.454 ± 0.023
AATCC	0.358 ± 0.014
CTGTC	0.18 ± 0.017
TGAAC	0.25 ± 0.0069

Variant	ligation selection enrichment
TGAAT	3.36 ± 0.95
AAAAA	0.191 ± 0.076
AAAAT	0.461 ± 0.12
AAAAC	0.17 ± 0.018
AAGCT	0.56 ± 0.29
AGTTA	0.434 ± 0.065
ACAGC	0.135 ± 0.011
GACAA	0.256 ± 0.04
GGTAA	0.348 ± 0.1
ATCCA	0.148 ± 0.027
ATCCT	0.468 ± 0.17
CTGGA	0.282 ± 0.086
TGGAT	233 ± 62
TTCCC	0.175 ± 0.022
GCAGC	0.14 ± 0.021
GAGTG	0.274 ± 0.035
CCCTC	0.14 ± 0.025
GATGT	0.126 ± 0.036
GATGA	0.606 ± 0.077
CGGCT	0.432 ± 0.15
CGGCC	0.134 ± 0.031
GCTGT	0.15 ± 0.068
GGACG	0.725 ± 0.049

Source: the supplement of paper PMC10219994
